From paper PMC10992996, “Human CRB1 and CRB2 form homo- and heteromeric protein complexes in the retina” (Life Science Alliance, 2024)

Target: T1, CRB1-FLAG p.C1174G (human, UniProt P82279 26-1406, p.C1174G)
T1 construct: Crumbs homolog 1, canonical form, human, cDNA NM_202153 as printed, with a patient missense mutation; Made by site-directed mutagenesis of m1; also called CRB1 p.C1174G; CRB1-FLAG MT; source: HEK293T, transfected, in lysate; not shown: Strep-Strep-FLAG, N-terminal, kept
T1 sequence (looked up): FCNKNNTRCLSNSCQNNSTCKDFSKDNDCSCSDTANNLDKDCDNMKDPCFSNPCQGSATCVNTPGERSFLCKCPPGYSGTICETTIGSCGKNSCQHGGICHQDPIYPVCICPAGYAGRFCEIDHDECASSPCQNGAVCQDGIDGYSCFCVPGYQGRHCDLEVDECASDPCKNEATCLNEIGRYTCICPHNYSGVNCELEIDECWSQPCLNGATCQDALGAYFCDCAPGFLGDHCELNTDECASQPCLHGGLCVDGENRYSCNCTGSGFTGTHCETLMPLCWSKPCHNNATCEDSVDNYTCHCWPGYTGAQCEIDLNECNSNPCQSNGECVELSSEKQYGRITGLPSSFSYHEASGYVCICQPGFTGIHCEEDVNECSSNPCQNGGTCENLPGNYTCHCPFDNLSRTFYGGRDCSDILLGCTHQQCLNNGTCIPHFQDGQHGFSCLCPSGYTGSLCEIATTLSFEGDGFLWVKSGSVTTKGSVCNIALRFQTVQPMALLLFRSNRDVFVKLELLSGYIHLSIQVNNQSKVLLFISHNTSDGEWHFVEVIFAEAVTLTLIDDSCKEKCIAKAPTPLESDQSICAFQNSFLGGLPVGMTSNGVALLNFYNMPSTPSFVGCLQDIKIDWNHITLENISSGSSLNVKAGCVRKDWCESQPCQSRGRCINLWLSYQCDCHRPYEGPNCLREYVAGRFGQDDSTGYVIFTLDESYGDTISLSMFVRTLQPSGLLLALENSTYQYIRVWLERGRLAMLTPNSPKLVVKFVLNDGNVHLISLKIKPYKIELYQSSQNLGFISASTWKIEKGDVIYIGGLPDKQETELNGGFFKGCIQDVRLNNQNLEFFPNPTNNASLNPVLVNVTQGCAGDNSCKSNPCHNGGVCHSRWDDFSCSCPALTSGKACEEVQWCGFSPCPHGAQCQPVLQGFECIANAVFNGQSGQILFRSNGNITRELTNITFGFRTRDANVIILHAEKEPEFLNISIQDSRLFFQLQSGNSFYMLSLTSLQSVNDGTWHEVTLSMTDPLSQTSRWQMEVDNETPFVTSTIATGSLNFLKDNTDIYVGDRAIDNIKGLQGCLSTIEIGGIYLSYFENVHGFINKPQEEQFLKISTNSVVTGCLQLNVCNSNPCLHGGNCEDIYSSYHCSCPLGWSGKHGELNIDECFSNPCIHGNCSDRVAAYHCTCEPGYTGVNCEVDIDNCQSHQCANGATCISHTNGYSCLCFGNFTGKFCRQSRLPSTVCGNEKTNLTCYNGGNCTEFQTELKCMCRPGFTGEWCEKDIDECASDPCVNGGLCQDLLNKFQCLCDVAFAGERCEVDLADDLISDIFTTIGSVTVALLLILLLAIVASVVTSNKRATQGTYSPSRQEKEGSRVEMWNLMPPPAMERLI
Assay: co-IP; HEK293T cells co-transfected pairwise with a FLAG and an HA construct, 48 h; lysis in TBS (30 mM Tris-HCl pH 7.4, 150 mM NaCl) with 0.5% Nonidet P40; FLAG-IP on ANTI-FLAG M2 Affinity Gel 60-90 min at 4°C, elution with FLAG peptide; Western blot with HA and FLAG antibodies; for mutants HA/FLAG signal in eluates relative to WT, three biological replicates
Conditions: partners not purified

B1: Human canonical CRB2 (Crumbs homolog 2) (natural protein)
chain: not shown
notes: Crumbs homolog 2, human, cDNA NM_173689; Stood as bait (FLAG copy) and as prey (HA copy) in the pairwise co-IP matrix; each copy carries only one of the two tags; The FLAG copy was the bait of the mass spectrometry pull-downs; also called CRB2-FLAG; CRB2-HA; source: HEK293T, transfected, in lysate (co-IP); HEK293T, transfected, FLAG-IP on beads, washed and purified with 0.01% SDS (retina …)
With B1 the “percent reduction of the interaction relative to CRB1 WT” value was 17%.
